Experimental data from patent EP4703380A1, “INTEGRIN-TARGETING ANTIBODIES AND USE THEREOF” (NIO BIOPHARMACEUTICALS. INC., priority 2023, dated 2024).
“And” between values parts separate entries of the source, which are not always exact repeats. Equal entries are not always repeated.

Columns and labels:
MDA-MB-468 = experiment: AlamarBlue cell growth inhibition, MDA-MB-468; type: cell-based; details: TNBC, MDA-MB-468, 4 days
Method: (§1) First, an appropriate number of cells (3x10^3 to 1x10^4 cells) for each cancer cell line were dispensed into each well of a 96-well plate and cultured for 24 hours at 37°C, 5% CO2, and then the medium was replaced with fresh growth medium. Then, sequentially diluted antibody-drug conjugates were added to each well, and the cells were cultured for 4 days under 37°C, 5% CO2 conditions, and then treated with AlamarBlue (Invitrogen). The fluorescence values were measured at Ex530 and Em590 every 2, 4, and 6 hours (PerkinElmer Victor x4). The obtained fluorescence values were analyzed with Prism4 (GraphPad) to determine the EC50 value. Each experiment was repeated three times.

SCaBER = experiment: AlamarBlue cell growth inhibition, SCaBER; type: cell-based; details: bladder, 4 days
Method: as §1

MDA-MB-453 = experiment: AlamarBlue cell growth inhibition, MDA-MB-453; type: cell-based; details: TNBC, MDA-MB-453, 4 days
Method: as §1

MDA-MB-231 cells = experiment: Triple-negative breast cancer xenograft efficacy; type: in vivo, mice; details: MDA-MB-231 xenograft
Method: Triple-negative breast cancer (TNBC) MDA-MB-231 cells (2x10^6 cells) were mixed with Matrigel at a 1:1 (v/v) ratio and injected subcutaneously into BALB/c nude or NOD/SCID mice (Nara Bio). When the tumor volume reached 100 mm^3, the PS4-vcMMAE antibody-drug conjugate was administered intraperitoneally at 5 mg/kg or 10 mg/kg once every 5 days for a total of 5 times. 2-3 mice were used in each group. All animal experiments were conducted in accordance with protocols approved by the Institutional Animal Care and Use Committee (IACUC) of Kangwon National University (KW-210728-3).

MDA-MB-231 = experiment: AlamarBlue cell growth inhibition, MDA-MB-231; type: cell-based; details: TNBC, MDA-MB-231, 4 days
Method: as §1

UMUC-3 = experiment: AlamarBlue cell growth inhibition, UMUC-3; type: cell-based; details: bladder, UMUC-3, 4 days
Method: as §1

A549 = experiment: AlamarBlue cell growth inhibition, A549; type: cell-based; details: Lung, A549, 4 days
Method: as §1

MDA-MB-231 ITGA KO = experiment: AlamarBlue cell growth inhibition, ITGA3 knockout negative control line; type: cell-based; details: breast cancer cell line with ITGA3 subunit knocked out
Method: MDA-MB-231 cells with ITGA3 gene knockout were generated as follows. sgRNAs targeting exon 17 ([…]) of the ITGA3 gene were subcloned using the CRISPR-Cas9-2A-Puro V2.0 (Addgene) system. MDA-MB-231 cells were transfected with CRISPR-Cas9/sgRNA and cultured at 37°C, 5% CO2 for 72 hours. Afterwards, puromycin, the selection marker for the CRISPR-Cas9 vector, was added at a concentration of 250 ng/mL and selected for 18 days. Then, the target protein knockout efficiency was measured using flow cytometry (FACS calibur, FACS Aria, BD Biosciences), and knockout cells were isolated. MDA-MB-231 cells with ITGA3 knockout, i.e., MDA-MB-231/ITGA3 KO cell lines, were analyzed by flow cytometry using 3 µg/mL PS4 antibody and anti-human Fc-gamma specific Alexa Fluor-647 (1:800 dilution, Jackson ImmunoResearch Laboratories Inc.). In addition, MDA-MB-231/ITGA3 KO cell lysate (30 µg) was separated by SDS-PAGE and analyzed by Western blot using anti-ITGA3 (Antibodies-online) and anti-mouse Fc-gamma specific-HRP. Sample loading was compared using anti-beta-actin.
First, an appropriate number of cells (3x10^3 to 1x10^4 cells) for each cancer cell line were dispensed into each well of a 96-well plate and cultured for 24 hours at 37°C, 5% CO2, and then the medium was replaced with fresh growth medium. […] The fluorescence values were measured at Ex530 and Em590 every 2, 4, and 6 hours (PerkinElmer Victor x4). […]

CoCaB1 = experiment: AlamarBlue cell growth inhibition, CoCaB1; type: cell-based; details: bladder, CoCaB1, 4 days
Method: as §1

PANC-1 [1] = experiment: Pancreatic cancer xenograft efficacy; type: in vivo, mice; details: PANC-1 xenograft, NOD/SCID
Method: PANC-1 (3 × 10^6) cancer cells were subcutaneously injected into NOD/SCID (female 5-week-old) mice. When the tumor volume reached […], the PS4-vcMMAE conjugate was intraperitoneally injected at 5 mg/kg or 10 mg/kg once every 5 days for a total of 3 times. The control group was treated with PBS, and the efficacy was evaluated with 3-4 mice per group. After the experiment, the tumors were excised, and the size of the tumor tissues in each experimental group was compared. All animal experiments were performed in accordance with the protocol approved by the Institutional Animal Care and Use Committee (IACUC) of Kangwon National University (KW-210728-3).

Panc-1 [2] = experiment: AlamarBlue cell growth inhibition, Panc-1; type: cell-based; details: Pancreatic, Panc-1, 4 days
Method: as §1

[3] = Real-time thermal stability (SYPRO Orange); type: physicochemical; details: 2 µM sample, 10.0°C to 95°C
Method: The method and principle of the experiment were as follows. As the temperature increases, the folded protein denatures, exposing hydrophobic regions, which bind to the SYPRO Orange detection dye, resulting in fluorescence. The point at 1/2 RFUmax is designated as the melting point (Tm). 22.5 µL of the assay sample and 2.5 µL of 50x SYPRO stock solution were added to a 96-well PCR plate (VOLO Semi-Skirted PCR Plate) so that the final concentration of the sample used in the experiment was 2 µM, and the fluorescence was measured using Quantstudio Real-Time PCR (Thermo Fisher scientific) while increasing the temperature by 0.5°C per 10 s from 10.0°C to 95°C. Each sample was tested three times. The fluorescence value of the antibody buffer was set as the background and subtracted, and the value with the greatest slope in the […] of the fluorescence value (dTRFU) was analyzed as the Tm of the corresponding protein.

MKN45 = experiment: AlamarBlue cell growth inhibition, MKN45; type: cell-based; details: Stomach, MKN45, 4 days
Method: as §1

SW780 = experiment: AlamarBlue cell growth inhibition, SW780; type: cell-based; details: bladder, SW780, 4 days
Method: as §1

BT20 = experiment: AlamarBlue cell growth inhibition, BT20; type: cell-based; details: TNBC, BT20, 4 days
Method: as §1

Aspc-1 = experiment: AlamarBlue cell growth inhibition, Aspc-1; type: cell-based; details: Pancreatic, Aspc-1, 4 days
Method: as §1

B1: PS4-vcMMAE: PS4 WT maxibody conjugated with vcMMAE (monomethyl auristatin E); average DAR 4.09 (conjugate)
VH: QVQLVQSGGGLVNPGGSLRLSCAASGFPFSDHYMSWIRQAPGKGLEWVSYISNRGYTIHYADFVKGRFTISRDNAENTLYLQMNSLRAEDTAVYYCARDRGTIDAFDLWGQGTMVTVSS
VL: QSALTQPASVSGSPGQSITIPCSGTSDDIGRYNYVSWYQQHPGKAPKLLIYDVTRRSSGVSSHFSGSKSGSTASLIISGLQADDEADYFCSSFTNNRTVVFGGGTKLTVL
modifications: left off: things letters cannot carry; another chain or arm of the molecule; a dimerising Fc or GST; small tags and cut ends
Maximum (% inhibition) (MDA-MB-468): 89.88±2.5% | IC50 (SCaBER): 1.88 ± 0.79 nM | Maximum (% inhibition) (SCaBER): 89.71±0.61% | IC50 (MDA-MB-453): 9.79 nM and 18.8 nM | Maximum (% inhibition) (MDA-MB-453): 96.2±0.36% and 87.9±0.61% | size and weight of the extracted tumor tissue reduced (MDA-MB-231 cells; BALB/c nude or NOD/SCID mice, intraperitoneally 5 mg/kg or 10 mg/kg once every 5 days, 5 times, vs control group): approximately 55% | tumor size compared to the time of drug administration (MDA-MB-231 cells; NOD/SCID, 10 mg/kg): no significant difference | tumor growth (MDA-MB-231 cells; intraperitoneally 5 mg/kg or 10 mg/kg once every 5 days, 5 times, vs control group): inhibited in a PS4-MMAE dose-dependent manner | IC50 (MDA-MB-231): 0.77 ± 0.63 nM | Maximum (% inhibition) (MDA-MB-231): 77.97±2.03% | IC50 (UMUC-3): 2.1 ± 1.2 nM | Maximum (% inhibition) (UMUC-3): 90.75±4.02% | IC50 (A549): 5.22 ± 2.17 nM | Maximum (% inhibition) (A549): 77.32±1.02% | anticancer efficacy (MDA-MB-231 ITGA KO): no anticancer efficacy was observed | IC50 (CoCaB1): 2.21 ± 1.4 nM | Maximum (% inhibition) (CoCaB1): 95.48±2.44% | tumor size reduced (PANC-1 [1]; 10 mg/kg): at least 60% | tumor growth (PANC-1 [1]; intraperitoneally 5 mg/kg or 10 mg/kg once every 5 days, 3 times, vs control group (PBS)): inhibited in a PS4-MMAE dose-dependent manner | IC50 (Panc-1 [2]): 2.7 ± 1.21 nM | Maximum (% inhibition) (Panc-1 [2]): 73.78±2.18% | Tm [3]: 64.67±0.24 °C | IC50 (MKN45): 14.1 ± 4.52 nM | Maximum (% inhibition) (MKN45): 55.65±6.45% | IC50 (SW780): 1.78 ± 1.05 nM | Maximum (% inhibition) (SW780): 90.43±2.32% | IC50 (BT20): 134 ± 43.4 nM | Maximum (% inhibition) (BT20): 79.6±11.3% | Maximum (% inhibition) (Aspc-1): 51.78±25.44%
